Assay results as given in patent US20130143251A1.

Experiments:
[1] = target: ubiquitinated peptide 20 (full Ub linked through a native isopeptide bond to the H2B 8-mer AVTKYTSK) (human)
[2] = target: ubiquitinated peptide 24 (full Ub linked through a native isopeptide bond to a 31-mer from the C-terminus of H2B) (human)
[3] = target: doubly labelled ubiquitinated peptide 32: Dnp-labelled Ub linked through a native isopeptide bond to MCA-(Nle)FKTEG (FRET substrate) (human)

Work on “recombinant human UCH-L3 (ubiquitin C-terminal hydrolase) (from UniProt P15374) (enzyme)” yielded a percent hydrolysis, HPLC (% hydrolysis within 30 minutes) [1] of 75, a percent hydrolysis, HPLC (% hydrolysis within 30 minutes) [2] of 25 and an increase of fluorescence emission upon cleavage (FRET assay) (fold increase in fluorescence) [3] of 6.
